Measurements published in publication PMC6224091.

B1: V5-Par6A (wild type) [not stated] / YFP-Tuba [not stated] (parent)
chain 1: MARPQRTPARSPDSIVEVKSKFDAEFRRFALPRASVSGFQEFSRLLRAVHQIPGLDVLLGYTDAHGDLLPLTNDDSLHRALASGPPPLRLLVQKRAEADSSGLAFASNSLQRRKKGLLLRPVAPLRTRPPLLISLPQDFRQVSSVIDVDLLPETHRRVRLHKHGSDRPLGFYIRDGMSVRVAPQGLERVPGIFISRLVRGGLAESTGLLAVSDEILEVNGIEVAGKTLDQVTDMMVANSHNLIVTVKPANQRNNVVRGASGRLTGPPSAGPGPAEPDSDDDSSDLVIENRQPPSSNGLSQGPPCWDLHPGCRHPGTRSSLPSLDDQEQASSGWGSRIRGDGSGFSL
chain 2: MEAGSVVRAIFDFCPSVSEELPLFVGDIIEVLAVVDEFWLLGKKEDVTGQFPSSFVEIVTIPSLKEGERLFVCICEFTSQELDNLPLHRGDLVILDGIPTAGWLQGRSCWGARGFFPSSCVRELCLSSQSRQWHSQSALFQIPEYSMGQARALMGLSAQLDEELDFREGDVITIIGVPEPGWFEGELEGRRGIFPEGFVELLGPLRTVDESVSSGNQDDCIVNGEVDTPVGEEEIGPDEDEEEPGTYGVALYRFQALEPNELDFEVGDKIRILATLEDGWLEGSLKGRTGIFPYRFVKLCPDTRVEETMALPQEGSLARIPETSLDCLENTLGVEEQRHETSDHEAEEPDCIISEAPTSPLGHLTSEYDTDRNSYQDEDTAGGPPRSPGVEWEMPLATDSPTSDPTEVVNGISSQPQVPFHPNLQKSQYYSTVGGSHPHSEQYPDLLPLEARTRDYASLPPKRMYSQLKTLQKPVLPLYRGSSVSASRVVKPRQSSPQLHNLASYTKKHHTSSVYSISERLEMKPGPQAQGLVMEAATHSQGDGSTDLDSKLTQQLIEFEKSLAGPGTEPDKILRHFSIMDFNSEKDIVRGSSKLITEQELPERRKALRPPPPRPCTPVSTSPHLLVDQNLKPAPPLVVRPSRPAPLPPSAQQRTNAVSPKLLSRHRPTCETLEKEGPGHMGRSLDQTSPCPLVLVRIEEMERDLDMYSRAQEELNLMLEEKQDESSRAETLEDLKFCESNIESLNMELQQLREMTLLSSQSSSLVAPSGSVSAENPEQRMLEKRAKVIEELLQTERDYIRDLEMCIERIMVPMQQAQVPNIDFEGLFGNMQMVIKVSKQLLAALEISDAVGPVFLGHRDELEGTYKIYCQNHDEAIALLEIYEKDEKIQKHLQDSLADLKSLYNEWGCTNYINLGSFLIKPVQRVMRYPLLLMELLNSTPESHPDKVPLTNAVLAVKEINVNINEYKRRKDLVLKYRKGDEDSLMEKISKLNIHSIIKKSNRVSSHLKHLTGFAPQIKDEVFEETEKNFRMQERLIKSFIRDLSLYLQHIRESACVKVVAAVSMWDVCMERGHRDLEQFERVHRYISDQLFTNFKERTERLVISPLNQLLSMFTGPHKLVQKRFDKLLDFYNCTERAEKLKDKKTLEELQSARNNYEALNAQLLDELPKFHQYAQGLFTNCVHGYAEAHCDFVHQALEQLKPLLSLLKVAGREGNLIAIFHEEHSRVLQQLQVFTFFPESLPATKKPFERKTIDRQSARKPLLGLPSYMLQSEELRASLLARYPPEKLFQAERNFNAAQDLDVSLLEGDLVGVIKKKDPMGSQNRWLIDNGVTKGFVYSSFLKPYNPRRSHSDASVGSHSSTESEHGSSSPRFPRQNSGSTLTFNPSSMAVSFTSGSCQKQPQDASPPPKECDQGTLSASLNPSNSESSPSRCPSDPDSTSQPRSGDSADVARDVKQPTATPRSYRNFRHPEIVGYSVPGRNGQSQDLVKGCARTAQAPEDRSTEPDGSEAEGNQVYFAVYTFKARNPNELSVSANQKLKILEFKDVTGNTEWWLAEVNGKKGYVPSNYIRKTEYT

Variants of: B1
Test: co-immunoprecipitation (IP: GFP), quantified blot
Settings: with YFP-Tuba; HEK293T cells; co-expressed with HA-Cdc42(G12V); n = 4; parent: 1; read off a plot

ratio to parent	Variant
0.73	chain 1 I133A S134A
